Reference: US7612163B1, “Prokineticin 2β peptide and its use” (Janssen Pharmaceutica N.V., priority 2004, dated 2009)

Legend:
PKR1 [1] = target: T1, PKR1 (Homo sapiens, UniProt Q8TCW9); assay: Radioligand competition binding assay (125I-PK2-f), PKR1 expressing COS-7 cells; set-up: The full-length cDNA coding regions for both PKR1 and PKR2 were PCR-amplified from human fetal brain cDNA; expressed in transfected cells; host or cells: COS-7 (transient, pCIneo); conditions: FIG. 4A
Protocol: (§1) FIGS. 4A and 4B graphically illustrate that PKs bind the PKR1 and PKR2 with different affinities. COS-7 cells transiently expressing PKR1 or PKR2 were seeded to 96-well plates. ^125I-labeled PK2-f was added to each well at a final concentration of 100 pM. Different concentrations of PK1, PK2 or PK2β were added to the assays as the competitors. All assays were performed in triplicates. The results are mean values (±S.E.M) of triplicates. FIG. 4A provides the results of the binding assay using PKR1 expressing cells.
(§2) Expression, purification, and iodination of C-terminal FLAG-tagged PK2. C-terminal FLAG-tagged PK2 (PK2-f) was constructed as described (Soga et al., 2002). Two primers P9: ATCGAGAATTCGCCACCATGAGGAGCCTGTGCTGCGCCC (SEQ.ID.NO.:11) and P10: GGATCCCTACTTATCGTCGTCATCCTTATAATCCTTTTGGGCTAAACA (SEQ.ID.NO.:12) were used to amplify human whole brain cDNA (Clontech). The PCR-amplified PK2-f was cloned into a mammalian expression vector pCMV-sport1 (Invitrogen). The resulting clones were sequenced to confirm the identities and transfected into COS-7 cells using LipofectAmine (Invitrogen). Three days after transfection, the cell culture supernatant was collected and run through an ANTI-FLAG M2 agarose (Sigma) affinity column. The column was washed with PBS and eluted with […] Glycine HCl, pH 3.0. The eluted protein fraction was immediately neutralized with 1 M Tris-HCl, pH 8.0 and then further purified by reverse-phase HPLC using a C4 column (Vydac). The purified recombinant PK2-f protein was iodinated using Iodogen reagent (Pierce, Rockford, Ill.) and ^125I-NaI (PerkinElmer, Boston, Mass.) as described by Pierce. The iodinated PK2-f was purified by a G-50 (Amersham Pharmacia Biotech) gel filtration column.
(§3) Radio-Ligand Binding Assays. PKR1 and PKR2 in the expression vector pCIneo (Promega) were transfected into COS-7 cells using LipofectAmine (Invitrogen). […] After the plates were washed three times with ice cold PBS, Microscint-40 (Packard, Meriden, Conn.) was added and the plates were counted on a Topcount (Packard).

PKR1 [2] = target: T1, PKR1; assay: Intracellular Ca2+ mobilization (FLIPR, Fluo-3) in PKR1 expressing HEK 293 cells; assay type: cell-based; set-up: The full-length cDNA coding regions for both PKR1 and PKR2 were PCR-amplified from human fetal brain cDNA; expressed in transfected cells; (transient, pCIneo)
Protocol: (§4) FIGS. 5A and 5B graphically illustrate that PKs stimulate Ca^2+ mobilization in HEK 293 cells expressing PKR1 or PKR2 at different potencies. HEK 293 cells transiently expressing PKR1 or PKR2 were seeded in 96-well plates, loaded with Ca^2+ dye Fluo-3 and then stimulated with different concentrations of PK1, PK2 or PK2β. The release of Ca^2+ was measured with a fluorescence imaging plate reader (FLIPR). The results are mean values (±S.E.M) of triplicate experiments. […] FIG. 5B provides the results for Ca^2+ mobilization in PKR2 expressing cells (legend: ▪, PK1; ▴, PK2; ▾, PK2β).
(§5) Intracellular Ca^2+ Mobilization Assays. PKR1 and PKR2 in the expression vector pCIneo (Promega) were transfected into HEK293 cells using LipofectAmine (Invitrogen). Two days after transfection, cells were detached using PBS containing 10 mM EDTA and seeded in poly-D-lysine coated 96-well black tissue culture plates (BD Biosciences).

PKR2 [3] = target: T2, PKR2 (Homo sapiens, UniProt Q8NFJ6); assay: Intracellular Ca2+ mobilization (FLIPR, Fluo-3) in PKR2 expressing HEK 293 cells; assay type: cell-based; set-up: The full-length cDNA coding regions for both PKR1 and PKR2 were PCR-amplified from human fetal brain cDNA; expressed in transfected cells; (transient, pCIneo)
Protocol: as §4, §5

PKR2 [4] = target: T2, PKR2; assay: cAMP accumulation (cAMP [125I] FlashPlate) in HEK 293 cells co-expressing PKR2/Gs; assay type: cell-based; set-up: The full-length cDNA coding regions for both PKR1 and PKR2 were PCR-amplified from human fetal brain cDNA; expressed in transfected cells; host or cells: HEK293 (transient, pCIneo, co-transfected with Gs plasmid); conditions: FIG. 8C
Protocol: FIGS. 8B and 8C illustrate results from HEK 293 cells co-expressing PKR1/Gs (FIG. 8B) or PKR2/Gs (FIG. 8C) stimulated with different PKs at various concentrations (the accumulated cAMP was measured by a cAMP [^125I] FlashPlate Assay kit; the results are mean values (±S.E.M) of triplicate experiments (legend: ▪, PK1; ▴, PK2; ▾, PK2β)).
In a different experiment, PKR1 and PKR2 in the expression vector pCIneo (Promega) were co-transfected with the Gs expression plasmid into HEK293 cells using LipofectAmine (Invitrogen). Two days after transfection, cells were detached with 10 mM EDTA in PBS, resuspended in Dulbecco's Modified Eagle's Medium/F12 (DMEM/F12) media, and then plated on 96-well plates at a density of 50,000 cells per well. Two hours after the seeding, cells culture medium was replaced with DMEM/F12 containing 2 mM isobutylmethylxanthine (Sigma) and incubated for 30 min. Different concentrations of PK1, PK2 or PK2β were added to cells and incubated for an additional 30 min in a final volume of 200 μl/well. The reaction was stopped and cAMP was extracted by adding 20 μl of 0.5 N HCl to each well. Cell culture media were tested for cAMP concentrations by the cAMP [^125I] FlashPlate Assay kit (PerkinElmer) as described by the manufacturer.

PKR2 [5] = target: T2, PKR2; assay: Radioligand competition binding assay (125I-PK2-f), PKR2 expressing COS-7 cells; set-up: The full-length cDNA coding regions for both PKR1 and PKR2 were PCR-amplified from human fetal brain cDNA; expressed in transfected cells; host or cells: COS-7 (transient, pCIneo); conditions: FIG. 4B
Protocol: as §1, §2, §3

T2 sequence (Q8NFJ6 whole entry): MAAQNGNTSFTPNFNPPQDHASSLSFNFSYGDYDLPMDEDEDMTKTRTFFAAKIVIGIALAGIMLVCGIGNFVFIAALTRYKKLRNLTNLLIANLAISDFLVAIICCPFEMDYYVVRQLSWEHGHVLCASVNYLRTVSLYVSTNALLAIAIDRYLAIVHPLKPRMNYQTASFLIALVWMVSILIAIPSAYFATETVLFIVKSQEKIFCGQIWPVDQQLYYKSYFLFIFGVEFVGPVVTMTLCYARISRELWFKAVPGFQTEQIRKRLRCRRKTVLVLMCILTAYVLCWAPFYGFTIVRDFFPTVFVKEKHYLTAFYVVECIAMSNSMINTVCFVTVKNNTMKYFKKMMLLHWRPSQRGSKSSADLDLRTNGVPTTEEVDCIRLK
T1 sequence (Q8TCW9 whole entry): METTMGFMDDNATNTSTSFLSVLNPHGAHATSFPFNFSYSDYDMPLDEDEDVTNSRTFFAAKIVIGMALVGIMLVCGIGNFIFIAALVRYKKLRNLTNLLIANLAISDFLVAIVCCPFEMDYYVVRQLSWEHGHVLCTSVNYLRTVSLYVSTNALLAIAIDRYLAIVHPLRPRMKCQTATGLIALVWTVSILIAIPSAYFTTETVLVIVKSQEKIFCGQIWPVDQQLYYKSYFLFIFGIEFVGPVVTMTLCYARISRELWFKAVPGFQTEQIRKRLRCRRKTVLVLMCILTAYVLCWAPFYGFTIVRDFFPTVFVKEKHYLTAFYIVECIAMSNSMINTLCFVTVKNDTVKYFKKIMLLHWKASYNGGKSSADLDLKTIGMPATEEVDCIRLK

AVITGACDKDSQCGGGMCCAVSIWVK SIRICTPMGKLGDSCHPLTRKNNFGNGRQE (AVITGACDKDSQCGGGMCCAVSIWVKSIRICTPMGKLGDSCHPLTRKNNFGNGRQE; listed as Homo sapiens) [PK2β, 56-amino acid mature peptide processed from PK2L pro-peptide by proteolytic (furin) cleavage; recombinant from COS-7 cells]
Binding to PKR1, in words (PKR1 [1]): high affinities
Agonist character at PKR1, in words (PKR1 [2]): potent full agonist
Receptor selectivity in Ca2+ mobilization, in words (PKR2 [3]; PKR1 versus PKR2, FIGS. 5A, 5B): only active at PKR1
Ca2+ response potency in PKR2-expressing cells, fold less potent than PK1 and PK2 (PKR2 [3]; relative to PK1 and PK2): approximately 50 fold
cAMP accumulation in PKR2 expressing HEK293 cells, in words (PKR2 [4]): marginal activity at high concentrations
Binding to PKR2, in words (PKR2 [5]): marginal active at high concentrations
